Measured values reported in patent US20240409960A1, “METHOD FOR CONTROLLING PROTEIN FUNCTION” (The University of Tokyo, priority 2021, published 2024).

B1: split-Cre: Cre split between Ser152 and Asp153 into N-terminal (a.a. 2-152) and C-terminal (a.a. 153-343) self-assembling fragments; SEQ ID No: 8 (protein)
chain: MVSKYPYDVPDYARSGGSGGKLVPKKKRKVGGSNLLTVHQNLPALPVDATSDEVRKNLMDMFRDRQAFSEHTWKMLLSVCRSWAAWCKLNNRKWFPAEPEDVRDYLLYLQARGLAVKTIQQHLGQLNMLHRRSGLPRPSDSNAVSLVMRRIRKENVDAGERAKQALAFERTDFDQVRSLMENSGSGSGATNFSLLKQAGDVEENPGPLEDRCQDIRNLAFLGIAYNTLLRIAEIARIRVKDISRTDGGRMLIHIGRTKTLVSTAGVEKALSLGVTKLVERWISVSGVADDPNNYLFCRVRKNGVAAPSATSQLSTRALEGIFEATHRLIYGAKDDSGQRYLAWSGHSARVGAARDMARAGVSIPEIMQAGGWTNVNIVMNYIRNLDSETGAMVRLLEDGD
modifications: MISC_FEATURE - HAtag; SIGNAL 23..30 Nuclear Localization Signal; MISC_FEATURE - N-terminal of Cre; MISC_FEATURE - P2A; MISC_FEATURE - C-terminal side of Cre; Bacteriophage P1
B2: SPEED-Cre: split Cre with a DD sequence on each of the N-terminal and C-terminal fragments; SEQ ID No: 10 (protein)
chain: MVSKYPYDVPDYARSGGSGGMISLIAALAVDYVIGMENAMPWNLPADLAWFKRNTLNKPVIMGRHTWESIGRPLPGRKNIILSSQPSTDDRVTWVKSVDEAIAACGDVPEIMVIGGGRVIEQFLPKAQKLYLTHIDAEVEGDTHFPDYEPDDWESVFSEFHDADAQNSHSYCFEILERRGGSGGSGGKLVPKKKRKVGGSNLLTVHQNLPALPVDATSDEVRKNLMDMFRDRQAFSEHTWKMLLSVCRSWAAWCKLNNRKWFPAEPEDVRDYLLYLQARGLAVKTIQQHLGQLNMLHRRSGLPRPSDSNAVSLVMRRIRKENVDAGERAKQALAFERTDFDQVRSLMENSGSGSGATNFSLLKQAGDVEENPGPLEDRCQDIRNLAFLGIAYNTLLRIAEIARIRVKDISRTDGGRMLIHIGRTKTLVSTAGVEKALSLGVTKLVERWISVSGVADDPNNYLFCRVRKNGVAAPSATSQLSTRALEGIFEATHRLIYGAKDDSGQRYLAWSGHSARVGAARDMARAGVSIPEIMQAGGWTNVNIVMNYIRNLDSETGAMVRLLEDGDGGSGGSGGMISLIAALAVDYVIGMENAMPWNLPADLAWFKRNTLNKPVIMGRHTWESIGRPLPGRKNIILSSQPSTDDRVTWVKSVDEAIAACGDVPEIMVIGGGRVIEQFLPKAQKLYLTHIDAEVEGDTHFPDYEPDDWESVFSEFHDADAQNSHSYCFEILERR
modifications: MISC_FEATURE - HAtag; DOMAIN 21..179 Degradation Domain; SIGNAL 190..197 Nuclear Localization Signal; MISC_FEATURE - N-terminal side of Cre; MISC_FEATURE - P2A; MISC_FEATURE - C-terminal side of Cre; DOMAIN 576..734 Degradation Domain; Bacteriophage P1
B3: DD-sasCre: sasCre tagged with a single DD sequence on the N terminal side of Cre; SEQ ID No: 9 (protein)
chain: MVSKYPYDVPDYARSGGSGGMISLIAALAVDYVIGMENAMPWNLPADLAWFKRNTLNKPVIMGRHTWESIGRPLPGRKNIILSSQPSTDDRVTWVKSVDEAIAACGDVPEIMVIGGGRVIEQFLPKAQKLYLTHIDAEVEGDTHFPDYEPDDWESVFSEFHDADAQNSHSYCFEILERRGGSGGSGGKLVPKKKRKVGGSNLLTVHQNLPALPVDATSDEVRKNLMDMFRDRQAFSEHTWKMLLSVCRSWAAWCKLNNRKWFPAEPEDVRDYLLYLQARGLAVKTIQQHLGQLNMLHRRSGLPRPSDSNAVSLVMRRIRKENVDAGERAKQALAFERTDFDQVRSLMENSGSGSGATNFSLLKQAGDVEENPGPLEDRCQDIRNLAFLGIAYNTLLRIAEIARIRVKDISRTDGGRMLIHIGRTKTLVSTAGVEKALSLGVTKLVERWISVSGVADDPNNYLFCRVRKNGVAAPSATSQLSTRALEGIFEATHRLIYGAKDDSGQRYLAWSGHSARVGAARDMARAGVSIPEIMQAGGWTNVNIVMNYIRNLDSETGAMVRLLEDGD
modifications: MISC_FEATURE - HAtag; DOMAIN 21..179 Degradation Domain; SIGNAL 190..197 Nuclear Localization Signal; MISC_FEATURE - N-terminal side of Cre; MISC_FEATURE - P2A; MISC_FEATURE - C-terminal side of Cre; Bacteriophage P1
B4: DD-Cre: destabilized Cre tagged with one ecDHFR-derived DD sequence; SEQ ID No: 3 (protein)
chain: MVSKYPYDVPDYARSGGSGGMISLIAALAVDYVIGMENAMPWNLPADLAWFKRNTLNKPVIMGRHTWESIGRPLPGRKNIILSSQPSTDDRVTWVKSVDEAIAACGDVPEIMVIGGGRVIEQFLPKAQKLYLTHIDAEVEGDTHFPDYEPDDWESVFSEFHDADAQNSHSYCFEILERRGGSGGSGGKLVPKKKRKVGGSNLLTVHQNLPALPVDATSDEVRKNLMDMFRDRQAFSEHTWKMLLSVCRSWAAWCKLNNRKWFPAEPEDVRDYLLYLQARGLAVKTIQQHLGQLNMLHRRSGLPRPSDSNAVSLVMRRIRKENVDAGERAKQALAFERTDFDQVRSLMENSDRCQDIRNLAFLGIAYNTLLRIAEIARIRVKDISRTDGGRMLIHIGRTKTLVSTAGVEKALSLGVTKLVERWISVSGVADDPNNYLFCRVRKNGVAAPSATSQLSTRALEGIFEATHRLIYGAKDDSGQRYLAWSGHSARVGAARDMARAGVSIPEIMQAGGWTNVNIVMNYIRNLDSETGAMVRLLEDGD
modifications: MISC_FEATURE - HAtag; DOMAIN 21..179 degradation domain; SIGNAL 190..197 Nuclear Localization Signal; Bacteriophage P1

Experiments:
[1] = system: DNA sequence flanked by two loxP sites (loxP-stop-loxP Fluc reporter) in HEK293 cells; assay: luciferase assay of Cre-loxP DNA recombination in HEK293 cells; type: cell-based, human; details: for TMP-dependent DNA recombination activity (induction): TMP 10 nM or 500 nM vs DMSO; for background DNA recombination activity (leakage) in the absence of TMP: luciferase reporter
Description: For constructing a luciferase reporter for detecting Cre-loxP recombinase activity, the polyadenylation signal (poly(A)) repeated sequence (“stop”)) flanked by two loxP sites ([…]: SEQ ID No: 36) in the same orientation was amplified from Addgene plasmid (ID: 22797). Sequence encoding firefly luciferase (Fluc) was amplified from pGL4.31 vector (Promega). The loxP stop-loxP-Fluc construct was inserted into HindIII and XhoI sites in pcDNA3.1 (+) vector containing the CMV promoter.
HEK293T cells (American Type Culture Collection: ATCC) were cultured at 37° C. under 5% CO2 in Dulbecco's Modified Eagle Medium (DMEM; Thermo Fisher Scientific) supplemented with 10% fetal bovine serum (FBS; Thermo Fisher Scientific), 100 units/ml of penicillin and 100 μg/ml of streptomycin (Thermo Fisher Scientific) and 2 mM GlutaMAX (Thermo Fisher Scientific).
For luciferase assay, HEK 293 cells were plated at 25,000 cells per well on a 96-well flat white microplate (Thermo Fisher Scientific), and were then cultured for 24 hours at 37° C. in 5% CO2. The cells were transfected with cDNAs encoding destabilized Cre along with the luciferase reporter (loxP-stop-loxP Fluc), using X-tremeGENE9 reagent (Merck Millipore) at 37° C. The total amount of DNA was 50 ng per well. Twenty-four hours after the transfection, TMP or DMSO was added into the cells, and the cells were further cultured for 24 hours or 48 hours. Just before the luciferase assay, the medium was replaced with Hanks' balanced salt solution (HBSS) (Thermo Fisher Scientific) containing 0.2 mM D-luciferin potassium salt. Bioluminescence measurement was performed for 1 second per well at room temperature using a Centro XS^3 LB 960 plate-reading luminometer (Berthold Technologies).

[2] = system: loxP-stop-loxP Fluc reporter in mice liver; assay: in vivo Cre-loxP recombination, bioluminescence imaging after HTV injection into mice; details: for DNA recombination activity in vivo in the absence of TMP: HTV injection, DMSO I.P., bioluminescence 24 hours after injection; for TMP-dependent DNA recombination activity in vivo: TMP 167 μg/g body weight I.P. 3 hours after HTV injection
Protocol: Experiments using mice were performed in accordance with the Guidelines for Care and Use of Laboratory Animals as stated by the University of Tokyo. In all the experiments, four week-old female Slc: ICR mice (Sankyo Labo Service Corporation, Inc.) were used. The mice were […] with cDNAs encoding destabilized Cre along with the luciferase reporter (loxP-stop-loxP Fluc) at 1:9 ratio, using TransIT-EE Hydrodynamic Delivery Solution (Mirus Bio LLC, Madison). The total amount of the DNA injected into a mouse was 10 μg per mouse. The volume of a delivery solution was set at 0.1 mL per mouse weight (g). After the hydrodynamic (HTV) injection of DNA, the mice were bred for 3 hours, and thereafter, TMP (167 μg/g body weight) or DMSO was intraperitoneally (I.P.) injected into the mice. The total volume of the TMP solution injected into a mouse was 100 μL per mouse weight (g). The intraperitoneally injected mice were bred for further 21 hours. The bioluminescence imaging of the mice was performed 24 hours after the HTV injection of DNA. Prior to the bioluminescence imaging, 100 mM D-luciferin was intraperitoneally injected into the mice. The total volume of the injected D-luciferin solution was 10 μL per mouse weight (g). Three minutes after the D-luciferin injection, the bioluminescence images of the mice were obtained using the Lumazone bioluminescence imager (Nippon Roper) equipped with the Evolve EMCCD camera (Photometrics) for 1 minutes. During the intraperitoneal D-luciferin injection and the bioluminescence imaging, the mice were anaesthetized with isoflurane (Abb Vie) to keep them motionless. The obtained data were analyzed with the SlideBook 4.2 software (Intelligent Innovations Inc.).
Next, the usefulness of SPEED-Cre in a living mouse body, namely, in vivo was examined. Using a hydrodynamic tail vain (HTV) injection method (Liu et al., Gene Ther. 6:1258-1266, 1999), mice liver was we transiently transfected with DD-Cre or SPEED-Cre (FIG. 5a). Three hours after the HTV injection, TMP (167 μg/g body weight) or DMSO was intraperitoneally (I.P.) administered into the DD-Cre- or SPEED-Cre-transfected mice (FIG. 5a). The DNA recombination activity was measured using the bioluminescence of a luciferase reporter as an indicator. […] The DNA recombination ability of DD-Cre in vivo was consistent to the ability in in vitro experiments using the human cell line.

Molecule	recombination efficiency of the self-assembled split fragments ([1]; N-terminal (a.a. 2-152) and C-terminal (a.a. 153-343) fragments expressed via P2A in HEK293 cells, no TMP)	DNA recombination activity in vivo in the absence of TMP [2]	TMP-dependent DNA recombination activity in vivo [2]	TMP-dependent DNA recombination activity (induction) ([1]; 5 ng expression plasmid, 24 or 48 hours (FIG. 4d))	background DNA recombination activity (leakage) in the absence of TMP ([1]; HEK293 cells, no TMP)	leakage of DNA recombination activity in the absence of TMP as a function of the amount of expression plasmid ([1]; HEK293 cells, plasmid amount varied, no TMP)	TMP-dependent DNA recombination activity (induction) ([1]; expression plasmid in various amounts, 24 or 48 hours (FIGS. 4f and g))	TMP-dependent DNA recombination activity ([1]; HEK293 cells transfected with 5 ng of expression plasmid, TMP treatment)	recombination activity after reduction of the transfection amount ([1]; transfection amount reduced by one 400th, HEK293 cells)
B1	high recombination efficiency comparable to that of iCre								
B2		suppressed to low, comparable to a negative control group using the pcDNA3.1 empty vector plasmid	high TMP-dependent DNA recombination activity, comparable to the recombination activity of Cre	not less than 10 fold	extremely low level that was comparable to the case of using the pcDNA3.1 empty vector plasmid and the reporter plasmid	maintained a low level	up to 330 fold		
B3					significantly lower activity leakage than DD-Cre 1.4				
B4		high DNA recombination activity at the same level as iCre	DNA recombination was not induced		almost the same level of the recombination activity of iCre			does not induce the DNA recombination	remained at almost the same level as that before the reduction of the transfection amount
